Measurements as given in patent publication US20180155451A1 (published 2018).

T1: FcgRIIa R extracellular domain with C-terminal His tag (human, UniProt P12318 34-217)
T1 construct: extracellular domain; also called FcγRIIa R; FcγRIIa type R; not shown: His tag attached to the C terminus
T1 sequence (looked up): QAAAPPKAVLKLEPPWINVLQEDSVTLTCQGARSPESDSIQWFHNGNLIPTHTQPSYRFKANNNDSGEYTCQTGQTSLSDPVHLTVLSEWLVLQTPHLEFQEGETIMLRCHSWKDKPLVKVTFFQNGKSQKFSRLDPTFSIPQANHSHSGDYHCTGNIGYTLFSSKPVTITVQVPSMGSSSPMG

T2: FcgRIIa H extracellular domain with C-terminal His tag (human, UniProt P12318 34-217)
T2 construct: extracellular domain; also called FcγRIIa H; FcγRIIa type H; not shown: His tag attached to the C terminus
T2 sequence (looked up): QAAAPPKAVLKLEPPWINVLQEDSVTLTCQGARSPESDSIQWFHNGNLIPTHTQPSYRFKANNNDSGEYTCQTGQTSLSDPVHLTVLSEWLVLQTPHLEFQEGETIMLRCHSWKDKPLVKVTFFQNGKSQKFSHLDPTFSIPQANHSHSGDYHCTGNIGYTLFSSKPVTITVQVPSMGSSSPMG

T3: FcgRIIb extracellular domain with C-terminal His tag (human, UniProt P31994 43-217)
T3 construct: extracellular domain; also called FcγRIIb; not shown: His tag attached to the C terminus
T3 sequence (looked up): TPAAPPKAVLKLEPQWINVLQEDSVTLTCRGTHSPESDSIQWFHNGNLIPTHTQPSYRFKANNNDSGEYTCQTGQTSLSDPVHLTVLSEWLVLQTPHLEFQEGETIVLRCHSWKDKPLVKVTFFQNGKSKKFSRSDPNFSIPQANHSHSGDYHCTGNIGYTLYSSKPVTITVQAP

T4: FcgRIIa R (human, UniProt P12318 34-217)
T4 construct: extracellular domain; also called FcγRIIa R; FcγRIIa type R; not shown: His tag attached to the C terminus
T4 sequence (looked up): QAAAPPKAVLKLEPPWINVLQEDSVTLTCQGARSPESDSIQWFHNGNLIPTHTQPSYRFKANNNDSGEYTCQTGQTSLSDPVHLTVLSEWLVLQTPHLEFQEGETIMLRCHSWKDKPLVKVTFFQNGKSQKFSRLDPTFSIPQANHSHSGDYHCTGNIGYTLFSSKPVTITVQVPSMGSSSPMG

T5: FcgRIIa H (human, UniProt P12318 34-217)
T5 construct: extracellular domain; also called FcγRIIa H; FcγRIIa type H; not shown: His tag attached to the C terminus
T5 sequence (looked up): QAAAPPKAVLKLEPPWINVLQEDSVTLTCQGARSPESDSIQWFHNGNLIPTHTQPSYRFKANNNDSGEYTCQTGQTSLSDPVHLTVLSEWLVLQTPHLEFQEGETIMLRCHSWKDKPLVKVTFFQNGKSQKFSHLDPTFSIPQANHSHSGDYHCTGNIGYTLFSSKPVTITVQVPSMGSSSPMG

T6: FcgRIIb (human, UniProt P31994 43-217)
T6 construct: extracellular domain; Expressed in FreeStyle293 cells and purified; used as analyte in Biacore; also called FcγRIIb; CD32B; not shown: His tag attached to the C terminus
T6 sequence (looked up): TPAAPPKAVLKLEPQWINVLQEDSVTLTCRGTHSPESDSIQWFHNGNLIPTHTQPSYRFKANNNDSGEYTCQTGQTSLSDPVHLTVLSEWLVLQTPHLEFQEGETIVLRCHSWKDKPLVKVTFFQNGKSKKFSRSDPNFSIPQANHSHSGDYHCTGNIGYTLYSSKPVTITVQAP


What was measured:
[1] = molecular target: T7, FcgRIa extracellular domain with C-terminal His tag (human, UniProt P12314 16-292); experiment: SPR (Biacore), antibody captured on chip, FcγR extracellular domain as analyte, kinetic analysis
T7 construct: extracellular domain; Expressed in FreeStyle293 cells; used as analyte in Biacore; also called FcγRIa; FcγRI; not shown: His tag attached to the C terminus
Description: (§1) Analysis of interaction between obj ective antibody and the FcγR was carried out using Biacore T100 (GE Healthcare), Biacore T200, Biacore A100, and Biacore 4000. HBS-EP+ (GE Healthcare) was used as the running buffer, and the measurement temperature was set to 25° C. Chips produced by immobilizing the antigen peptide by the amine coupling method to a Series S sensor Chip CM5 (GE Healthcare), chips produced by allowing preliminarily biotinylated antigen peptides to interact with and immobilize onto a Series S Sensor Chip SA (certified) (GE Healthcare), chips produced by immobilizing Protein L (ACTIGEN, BioVision) to Series S Sencor Chip CM5 (GE Healthcare), or chips produced by immobilizing Protein A/G (Thermo Scientific) to Series S Sencor Chip CM5 (GE Healthcare) were used. Antibodies of interest were captured onto these chips, and allowed to interact to each FcγR diluted with running buffer. To regenerate and repeatedly use the chip, the antibodies captured onto the chip were washed off by reacting 10 mM glycine-HCl, pH 1.5.

[2] = molecular target: T1, FcgRIIa R extracellular domain with …; experiment: as above
Description: as §1

[3] = molecular target: T2, FcgRIIa H extracellular domain with …; experiment: as above
Description: as §1

[4] = molecular target: T3, FcgRIIb extracellular domain with …; experiment: as above
Description: as §1

[5] = molecular target: T8, FcgRIIIa F extracellular domain with C-terminal His tag (human, UniProt P08637 17-208); experiment: as above
T8 construct: extracellular domain; also called FcγRIIIa F; FcγRIIIa (F158); not shown: His tag attached to the C terminus
Description: as §1

[6] = molecular target: T9, FcgRIIIa V extracellular domain with C-terminal His tag (human, UniProt P08637 17-208); experiment: as above
T9 construct: extracellular domain; also called FcγRIIIa V; FcγRIIIa (V158); not shown: His tag attached to the C terminus
Description: as §1

FcgRIa = molecular target: T10, FcgRIa (human, UniProt P12314 16-292); experiment: SPR (Biacore), antibody captured on chip, FcgR extracellular domain as analyte
T10 construct: extracellular domain; Expressed in FreeStyle293 cells and purified; used as analyte in Biacore; also called FcγRIa; FcγRI; not shown: His tag attached to the C terminus
Description: as §1

FcgRIIa R = molecular target: T4, FcgRIIa R; experiment: as above
Description: as §1

FcgRIIa H = molecular target: T5, FcgRIIa H; experiment: as above
Description: as §1

FcgRIIb = molecular target: T6, FcgRIIb; experiment: as above
Description: as §1

FcgRIIIa F = molecular target: T11, FcgRIIIa F (human, UniProt P08637 17-208); experiment: as above
T11 construct: extracellular domain; also called FcγRIIIa F; not shown: His tag attached to the C terminus
Description: as §1

FcgRIIIa V = molecular target: T12, FcgRIIIa V (human, UniProt P08637 17-208); experiment: as above
T12 construct: extracellular domain; also called FcγRIIIa V; not shown: His tag attached to the C terminus
Description: as §1

T8 sequence (P08637 17-208): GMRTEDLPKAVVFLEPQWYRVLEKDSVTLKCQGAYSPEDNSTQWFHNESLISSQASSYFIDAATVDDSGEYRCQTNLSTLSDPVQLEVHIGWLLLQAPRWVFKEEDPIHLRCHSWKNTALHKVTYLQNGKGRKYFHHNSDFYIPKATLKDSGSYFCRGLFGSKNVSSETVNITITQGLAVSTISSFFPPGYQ
T7 sequence (P12314 16-292): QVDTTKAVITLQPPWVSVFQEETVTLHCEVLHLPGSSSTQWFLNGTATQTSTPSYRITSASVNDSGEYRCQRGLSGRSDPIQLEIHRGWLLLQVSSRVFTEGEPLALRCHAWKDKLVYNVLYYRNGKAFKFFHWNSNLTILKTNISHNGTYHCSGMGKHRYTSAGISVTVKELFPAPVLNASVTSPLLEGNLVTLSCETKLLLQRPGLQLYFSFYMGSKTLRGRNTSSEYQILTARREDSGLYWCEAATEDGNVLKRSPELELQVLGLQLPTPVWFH
T9 sequence (P08637 17-208 F176V): as the sequence (P08637 17-208) above, with F160V counted along it
T11 sequence (P08637 17-208): as the sequence (P08637 17-208) above
T10 sequence (P12314 16-292): as the sequence (P12314 16-292) above
T12 sequence (P08637 17-208 F176V limits assumed): as the sequence (P08637 17-208) above, with F160V counted along it

Kd [1] [nM] | Kd [2] [nM] | Kd [3] [nM] | Kd [4] [nM] | Kd [5] [nM] | Kd [6] [nM] | Kd (FcgRIa) [nM] | Kd (FcgRIIa R) [nM] | Kd (FcgRIIa H) [nM] | Kd (FcgRIIb) [nM] | Kd (FcgRIIIa F) [nM] | Kd (FcgRIIIa V) [nM] | Binder
0.073 | 340 | 690 | 620 | 9.1 | 3.1 |  |  |  |  |  |  | H240-Kn032/H240-Hl032/L73-k0 (antibody, human IgG1, kappa, S239D/A330L/I332E in both H chains (called homodimerized)) heavy 1: QDQLVQSGAEVKKPGASVKVSCKASGFNIKDTYIQWVRQAPGQGLEWMGRIDPLRKQTKYREKFEGRVTITADTSTNTAYMELSSLRSEDTAVYYCVRSGREFDYWGQGTLVTVSSASTKGPSVFPLAPSSKSTSGGTAALGCLVKDYFPEPVTVSWNSGALTSGVHTFPAVLQSSGLYSLSSVVTVPSSSLGTQTYICNVNHKPSNTKVDKKVEPKSCDKTHTCPPCPAPELLGGPDVFLFPPKPKDTLMISRTPEVTCVVVDVSHEDPEVKFNWYVDGVEVHNAKTKPREEQYNSTYRVVSVLTVLHQDWLNGKEYKCKVSNKALPLPEEKTISKAKGQPREPQVCTLPPSRDELTKNQVSLWCLVKGFYPSDIAVEWESNGQPENNYKTTPPVLDSDGSFFLYSKLTVDKSRWQQGNVFSCSVMHEALHNHYTQKSLSLSP heavy 2: QDQLVQSGAEVKKPGASVKVSCKASGFNIKDTYIQWVRQAPGQGLEWMGRIDPLRKQTKYREKFEGRVTITADTSTNTAYMELSSLRSEDTAVYYCVRSGREFDYWGQGTLVTVSSASTKGPSVFPLAPSSKSTSGGTAALGCLVKDYFPEPVTVSWNSGALTSGVHTFPAVLQSSGLYSLSSVVTVPSSSLGTQTYICNVNHKPSNTKVDKKVEPKSCDKTHTCPPCPAPELLGGPDVFLFPPKPKDTLMISRTPEVTCVVVDVSHEDPEVKFNWYVDGVEVHNAKTKPREEQYNSTYRVVSVLTVLHQDWLNGKEYKCKVSNKALPLPEEKTISKAKGQPREPQVYTLPPSRCELTKNQVSLSCAVKGFYPSDIAVEWESNGQPENNYKTTPPVLDSDGSFFLVSKLTVDKSRWQQGNVFSCSVMHEALHNHYTQKSLSLSP light: DIQMTQSPSSLSASVGDRVTITCRASQDIHKYIAWYQQKPGQAPRLLIQYTSTLQPGVPSRFSGSGSGTDYTFTISSLQPEDIATYYCLQYEQLRTFGGGTKVEIKRTVAAPSVFIFPPSDEQLKSGTASVVCLLNNFYPREAKVQWKVDNALQSGNSQESVTEQDSKDSTYSLSSTLTLSKADYEKHKVYACEVTHQGLSSPVTKSFNRGEC
 |  |  |  |  |  | 0.14 | 350 | 280 | 1200 | 5.1 | 1.8 | H240-Kn061/H240-Hl071/L73-k0 (antibody, human IgG1, kappa, Heterodimerized anti-EREG IgG1: L234Y/L235Y/G236W/H268D/S298A in Kn061, K326D/A330M/K334E in Hl071) heavy 1: QDQLVQSGAEVKKPGASVKVSCKASGFNIKDTYIQWVRQAPGQGLEWMGRIDPLRKQTKYREKFEGRVTITADTSTNTAYMELSSLRSEDTAVYYCVRSGREFDYWGQGTLVTVSSASTKGPSVFPLAPSSKSTSGGTAALGCLVKDYFPEPVTVSWNSGALTSGVHTFPAVLQSSGLYSLSSVVTVPSSSLGTQTYICNVNHKPSNTKVDKKVEPKSCDKTHTCPPCPAPEYYWGPSVFLFPPKPKDTLMISRTPEVTCVVVDVSDEDPEVKFNWYVDGVEVHNAKTKPREEQYNATYRVVSVLTVLHQDWLNGKEYKCKVSNKALPAPIEKTISKAKGQPREPQVCTLPPSRDELTKNQVSLWCLVKGFYPSDIAVEWESNGQPENNYKTTPPVLDSDGSFFLYSKLTVDKSRWQQGNVFSCSVMHEALHNHYTQKSLSLSP heavy 2: QDQLVQSGAEVKKPGASVKVSCKASGFNIKDTYIQWVRQAPGQGLEWMGRIDPLRKQTKYREKFEGRVTITADTSTNTAYMELSSLRSEDTAVYYCVRSGREFDYWGQGTLVTVSSASTKGPSVFPLAPSSKSTSGGTAALGCLVKDYFPEPVTVSWNSGALTSGVHTFPAVLQSSGLYSLSSVVTVPSSSLGTQTYICNVNHKPSNTKVDKKVEPKSCDKTHTCPPCPAPELLGGPSVFLFPPKPKDTLMISRTPEVTCVVVDVSHEDPEVKFNWYVDGVEVHNAKTKPREEQYNSTYRVVSVLTVLHQDWLNGKEYKCKVSNDALPMPIEETISKAKGQPREPQVYTLPPSRCELTKNQVSLSCAVKGFYPSDIAVEWESNGQPENNYKTTPPVLDSDGSFFLVSKLTVDKSRWQQGNVFSCSVMHEALHNHYTQKSLSLSP light: DIQMTQSPSSLSASVGDRVTITCRASQDIHKYIAWYQQKPGQAPRLLIQYTSTLQPGVPSRFSGSGSGTDYTFTISSLQPEDIATYYCLQYEQLRTFGGGTKVEIKRTVAAPSVFIFPPSDEQLKSGTASVVCLLNNFYPREAKVQWKVDNALQSGNSQESVTEQDSKDSTYSLSSTLTLSKADYEKHKVYACEVTHQGLSSPVTKSFNRGEC
0.43 | 490 | 780 | 2600 | 78 | 6.9 |  |  |  |  |  |  | H240-afucosyl_G1d/L73-k0 (antibody, human IgG1, kappa, fucose removed from the sugar chain (afucosylated), also called afucosylated antibody) heavy: not shown light: DIQMTQSPSSLSASVGDRVTITCRASQDIHKYIAWYQQKPGQAPRLLIQYTSTLQPGVPSRFSGSGSGTDYTFTISSLQPEDIATYYCLQYEQLRTFGGGTKVEIKRTVAAPSVFIFPPSDEQLKSGTASVVCLLNNFYPREAKVQWKVDNALQSGNSQESVTEQDSKDSTYSLSSTLTLSKADYEKHKVYACEVTHQGLSSPVTKSFNRGEC
